Among the data in US20230052256A1 are koff, kon and Kd values, retold here.

In test [1] the target is recombinant human FGFR1b-Fc (R&D Systems) (human) (UniProt P11362). As to the kind of experiment: SPR (Biacore T200), hFGFR1b-Fc amine-coupled to a CM5 chip, antibody injected at 0-200 nM. (In SPR one partner is held on a chip, and binding of the other changes the refractive index at the surface.)
For test [2] the target is unchanged. As to the kind of experiment: SPR (Biacore T200), hFGFR1b-Fc amine-coupled to CM5 chip, antibody injected.
The target in test [3] is human FGFR2b (beta)-Fc, human Fc fusion (human). As to the kind of experiment: SPR (Biacore T200), hFGFR2b-Fc amine-coupled to a CM5 chip, antibody injected at 0-200 nM.

A word on the koff: it is a measure of how fast the partners let go of each other. The kon is a measure of how fast the partners come together. As a reminder, the Kd is the concentration at which binding is half-saturated.

recombinant human FGFR1b-Fc (R&D Systems) (human), sequence (P11362 other isoform, or with tags, fused parts or gaps limits assumed): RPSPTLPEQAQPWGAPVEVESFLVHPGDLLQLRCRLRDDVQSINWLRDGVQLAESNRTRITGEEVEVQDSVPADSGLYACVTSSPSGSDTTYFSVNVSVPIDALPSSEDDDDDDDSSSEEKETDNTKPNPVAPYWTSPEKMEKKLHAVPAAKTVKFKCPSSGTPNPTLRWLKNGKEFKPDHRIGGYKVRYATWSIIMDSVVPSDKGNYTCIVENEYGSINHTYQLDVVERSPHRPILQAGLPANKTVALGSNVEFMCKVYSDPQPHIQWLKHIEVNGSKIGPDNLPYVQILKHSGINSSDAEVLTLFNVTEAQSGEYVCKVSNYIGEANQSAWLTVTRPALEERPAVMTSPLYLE

B1: FPA144 (clinical stage anti-human FGFR2b specific antibody) (antibody, INN chains, looked up, V domains shown)
VH: QVQLVQSGAEVKKPGSSVKVSCKASGYIFTTYNVHWVRQAPGQGLEWIGSIYPDNGDTSYNQNFKGRATITADKSTSTAYMELSSLRSEDTAVYYCARGDFAYWGQGTLVTVSS
VL: DIQMTQSPSSLSASVGDRVTITCKASQGVSNDVAWYQQKPGKAPKLLIYSASYRYTGVPSRFSGSGSGTDFTFTISSLQPEDIATYYCQQHSTTPYTFGQGTKLEIK
As for B1, in test [1], the koff amounted to 0.00746 s⁻¹ and the on-rate constant (kon) was 33200 M⁻¹ s⁻¹. The Kd in test [2] came out at 0.225 µM. In test [3], this molecule displayed a Kd of 0.00075 µM, a koff of 7.77e-05 s⁻¹ and an on-rate (kon) of 104000 M⁻¹ s⁻¹.
